Source: publication PMC11709261
Read-outs that look alike come from different tables or passages of the source.

Experiments:
Experiment in all cases: two-hybrid; bacterial adenylate cyclase two-hybrid (BACTH) in E. coli BTH101 (cya) or derivatives (ΔdsbA AP58, ΔdjlA AP63, rcsB::tet EAW1, rcsC::tet EAW2, rcsF::cat EAW4); proteins fused at their C-terminus to T18 or T25; some sets with DjlA or DjlA variants co-expressed downstream of IgaA-T18; overnight growth in LB with 0.5 mM IPTG at 30°C; beta-galactosidase (ONPG, OD420 kinetics at 28°C), plotted relative to IgaA/RcsD
RcsD (E. coli) [1] = molecular target: RcsD (E. coli) (UniProt P39838)
Chain of UniProt P39838 (P39838 whole entry): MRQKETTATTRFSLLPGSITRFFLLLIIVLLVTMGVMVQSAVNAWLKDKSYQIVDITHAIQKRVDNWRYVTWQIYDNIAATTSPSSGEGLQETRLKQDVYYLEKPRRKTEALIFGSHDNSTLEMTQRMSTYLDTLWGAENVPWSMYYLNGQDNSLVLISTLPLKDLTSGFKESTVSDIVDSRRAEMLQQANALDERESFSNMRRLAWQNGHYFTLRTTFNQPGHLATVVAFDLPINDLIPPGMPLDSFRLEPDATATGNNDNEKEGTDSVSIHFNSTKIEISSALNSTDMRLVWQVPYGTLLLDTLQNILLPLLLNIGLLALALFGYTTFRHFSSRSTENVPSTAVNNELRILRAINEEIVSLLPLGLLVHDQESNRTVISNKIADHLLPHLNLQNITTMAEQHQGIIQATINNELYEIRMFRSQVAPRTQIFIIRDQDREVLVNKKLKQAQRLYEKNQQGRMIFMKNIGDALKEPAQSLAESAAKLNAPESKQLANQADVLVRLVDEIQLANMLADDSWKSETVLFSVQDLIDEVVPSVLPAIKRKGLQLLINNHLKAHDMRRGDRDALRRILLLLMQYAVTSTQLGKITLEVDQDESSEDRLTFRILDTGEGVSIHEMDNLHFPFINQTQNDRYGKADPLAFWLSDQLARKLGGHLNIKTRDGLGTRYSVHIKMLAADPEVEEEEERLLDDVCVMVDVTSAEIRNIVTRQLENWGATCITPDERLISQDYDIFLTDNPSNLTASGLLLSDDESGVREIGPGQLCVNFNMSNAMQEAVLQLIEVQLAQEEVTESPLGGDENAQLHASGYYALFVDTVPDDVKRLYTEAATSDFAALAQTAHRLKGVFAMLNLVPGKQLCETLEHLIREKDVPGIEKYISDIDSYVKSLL

RcsD (E. coli) [2] = molecular target: RcsD (E. coli) (UniProt P39838); remark: listed apart in the source
RcsD (E. coli) [3] = molecular target: RcsD (E. coli) (UniProt P39838); remark: listed apart in the source
RcsD (E. coli) [4] = molecular target: RcsD (E. coli) (UniProt P39838); remark: listed apart in the source
RcsD (E. coli) [5] = molecular target: RcsD (E. coli) (UniProt P39838); remark: listed apart in the source
RcsD (E. coli) [6] = molecular target: RcsD (E. coli) (UniProt P39838); remark: listed apart in the source

beta-galactosidase activity (BACTH) (units (1000x the slope of OD420)) (RcsD (E. coli) [1]): 577
beta-galactosidase activity (BACTH) (RcsD (E. coli) [2]): 533 units
beta-galactosidase activity (BACTH) (units (1000x the slope of OD420)) (RcsD (E. coli) [2]): 545
beta-galactosidase activity (BACTH) (units (1000x the slope of OD420)) (RcsD (E. coli) [3]): 569
beta-galactosidase activity (BACTH) (units (1000x the slope of OD420)) (RcsD (E. coli) [4]): 580
beta-galactosidase activity (BACTH) (units (1000x the slope of OD420)) (RcsD (E. coli) [5]): 578
beta-galactosidase activity (BACTH) (units (1000x the slope of OD420)) (RcsD (E. coli) [6]): 490
Substance: IgaA (natural protein)
